Earlier results in paper PMC7755605.

Biological target: TRAF6 (Homo sapiens) (UniProt Q9Y4K3)
Sequence (Q9Y4K3 whole entry): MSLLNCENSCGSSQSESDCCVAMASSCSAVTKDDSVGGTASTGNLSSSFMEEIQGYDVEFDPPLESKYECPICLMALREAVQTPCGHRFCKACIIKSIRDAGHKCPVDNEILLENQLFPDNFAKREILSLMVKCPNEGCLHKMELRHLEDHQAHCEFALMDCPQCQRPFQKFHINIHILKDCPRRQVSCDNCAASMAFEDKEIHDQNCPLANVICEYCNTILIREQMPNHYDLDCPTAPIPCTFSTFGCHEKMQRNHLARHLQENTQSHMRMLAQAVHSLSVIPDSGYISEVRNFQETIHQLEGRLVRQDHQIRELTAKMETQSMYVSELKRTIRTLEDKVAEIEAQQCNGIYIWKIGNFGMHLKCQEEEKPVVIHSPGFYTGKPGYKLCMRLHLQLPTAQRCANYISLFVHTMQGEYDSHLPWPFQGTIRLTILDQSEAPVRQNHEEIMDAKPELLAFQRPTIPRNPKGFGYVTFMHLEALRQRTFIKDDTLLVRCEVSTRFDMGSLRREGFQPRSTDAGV

Chain of TRANCE-R (Q9Y6Q6 30-616): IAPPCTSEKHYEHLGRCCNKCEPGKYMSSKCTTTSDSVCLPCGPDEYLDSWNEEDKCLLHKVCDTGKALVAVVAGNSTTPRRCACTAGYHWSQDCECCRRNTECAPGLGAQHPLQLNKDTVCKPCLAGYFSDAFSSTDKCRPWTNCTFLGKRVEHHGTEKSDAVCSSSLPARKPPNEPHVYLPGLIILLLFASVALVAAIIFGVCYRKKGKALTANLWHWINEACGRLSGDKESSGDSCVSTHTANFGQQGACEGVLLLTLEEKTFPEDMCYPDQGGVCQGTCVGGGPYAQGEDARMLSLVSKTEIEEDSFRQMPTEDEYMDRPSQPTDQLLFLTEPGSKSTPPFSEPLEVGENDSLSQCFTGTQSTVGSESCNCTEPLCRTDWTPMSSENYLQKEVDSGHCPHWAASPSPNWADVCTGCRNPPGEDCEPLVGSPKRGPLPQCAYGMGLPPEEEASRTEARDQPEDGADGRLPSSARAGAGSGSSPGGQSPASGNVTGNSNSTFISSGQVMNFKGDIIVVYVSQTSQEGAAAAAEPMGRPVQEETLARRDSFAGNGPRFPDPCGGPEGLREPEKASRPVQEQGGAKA

**Q.** Which Kd does the source give for TRANCE-R (from UniProt Q9Y6Q6) here?
**A.** 84 µM
